Measured values reported in paper PMC9456352.

Columns and labels:
[1] = biological target: Staphylococcus aureus exfoliative toxin E (Staphylococcus aureus); assay: SAXS; 5 mg/mL ETE in 20 mM MES pH 7.0, 150 mM NaCl, 25 °C; pair distance distribution by indirect Fourier transform
[2] = biological target: Staphylococcus aureus exfoliative toxin E (Staphylococcus aureus); assay: SEC; Superdex G75 10/300 GL, 0.7 mL/min; several buffers, NaCl concentrations and pH values (among them 20 mM MES pH 7.0, 150 mM NaCl); BSA (~66 kDa) and bovine beta-trypsin (~24 kDa) as size controls; absorbance at 230 nm
[3] = biological target: Staphylococcus aureus exfoliative toxin E (Staphylococcus aureus); assay: native gel or EMSA; BN-PAGE 15%, 30 ug protein, running buffer 25 mM Tris pH 8.3, 192 mM glycine; BSA monomer and bovine beta-trypsin as markers; Coomassie stain
[4] = biological target: ETE/P186G mutant (Staphylococcus aureus); assay: not stated; shown in Figure S5 (not shown); the methods tell SEC of ETE/P186G in 20 mM MES pH 7.0, 150 mM NaCl and BN-PAGE of peak fractions

Substance | stoichiometry N [1] | stoichiometry N [2] | stoichiometry N [3] | stoichiometry N [4]
Staphylococcus aureus exfoliative toxin E (enzyme) | 2 | 2 | 2 | 
ETE/P186G mutant (enzyme) |  |  |  | 2
